Laboratory results: article PMC2816671 (2010)

Biological target: von Willebrand factor (Homo sapiens, UniProt P04275)
Assay: Eu-labelled ligand solid-phase equilibrium binding

Kd [nM]	Binder
100	plasminogen (protein) EPLDDYVNTQGASLFSVTKKQLGAGSIEECAAKCEEDEEFTCRAFQYHSKEQQCVIMAENRKSSIIIRMRDVVLFEKKVYLSECKTGNGKNYRGTMSKTKNGITCQKWSSTSPHRPRFSPATHPSEGLEENYCRNPDNDPQGPWCYTTDPEKRYDYCDILECEEECMHCSGENYDGKISKTMSGLECQAWDSQSPHAHGYIPSKFPNKNLKKNYCRNPDRELRPWCFTTDPNKRWELCDIPRCTTPPPSSGPTYQCLKGTGENYRGNVAVTVSGHTCQHWSAQTPHTHNRTPENFPCKNLDENYCRNPDGKRAPWCHTTNSQVRWEYCKIPSCDSSPVSTEQLAPTAPPELTPVVQDCYHGDGQSYRGTSSTTTTGKKCQSWSSMTPHRHQKTPENYPNAGLTMNYCRNPDADKGPWCFTTDPSVRWEYCNLKKCSGTEASVVAPPPVVLLPDVETPSEEDCMFGNGKGYRGKRATTVTGTPCQDWAAQEPHRHSIFTPETNPRAGLEKNYCRNPDGDVGGPWCYTTNPRKLYDYCDVPQCAAPSFDCGKPQVEPKKCPGRVVGGCVAHPHSWPWQVSLRTRFGMHFCGGTLISPEWVLTAAHCLEKSPRPSSYKVILGAHQEVNLEPHVQEIEVSRLFLEPTRKDIALLKLSSPAVITDKVIPACLPSPNYVVADRTECFITGWGETQGTFGAGLLKEAQLPVIENKVCNRYEFLNGRVQSTELCAGHLAGGTDSCQGDSGGPLVCFEKDKYILQGVTSWGLGCARPNKPGVYVRVSRFVTWIEGVMRNN
160	plasmin (protein) VVGGCVAHPHSWPWQVSLRTRFGMHFCGGTLISPEWVLTAAHCLEKSPRPSSYKVILGAHQEVNLEPHVQEIEVSRLFLEPTRKDIALLKLSSPAVITDKVIPACLPSPNYVVADRTECFITGWGETQGTFGAGLLKEAQLPVIENKVCNRYEFLNGRVQSTELCAGHLAGGTDSCQGDSGGPLVCFEKDKYILQGVTSWGLGCARPNKPGVYVRVSRFVTWIEGVMRNN
270	active-site blocked plasmin (protein, Pefabloc (AEBSF) active-site blocked) chain 1: KVYLSECKTGNGKNYRGTMSKTKNGITCQKWSSTSPHRPRFSPATHPSEGLEENYCRNPDNDPQGPWCYTTDPEKRYDYCDILECEEECMHCSGENYDGKISKTMSGLECQAWDSQSPHAHGYIPSKFPNKNLKKNYCRNPDRELRPWCFTTDPNKRWELCDIPRCTTPPPSSGPTYQCLKGTGENYRGNVAVTVSGHTCQHWSAQTPHTHNRTPENFPCKNLDENYCRNPDGKRAPWCHTTNSQVRWEYCKIPSCDSSPVSTEQLAPTAPPELTPVVQDCYHGDGQSYRGTSSTTTTGKKCQSWSSMTPHRHQKTPENYPNAGLTMNYCRNPDADKGPWCFTTDPSVRWEYCNLKKCSGTEASVVAPPPVVLLPDVETPSEEDCMFGNGKGYRGKRATTVTGTPCQDWAAQEPHRHSIFTPETNPRAGLEKNYCRNPDGDVGGPWCYTTNPRKLYDYCDVPQCAAPSFDCGKPQVEPKKCPGR chain 2: VVGGCVAHPHSWPWQVSLRTRFGMHFCGGTLISPEWVLTAAHCLEKSPRPSSYKVILGAHQEVNLEPHVQEIEVSRLFLEPTRKDIALLKLSSPAVITDKVIPACLPSPNYVVADRTECFITGWGETQGTFGAGLLKEAQLPVIENKVCNRYEFLNGRVQSTELCAGHLAGGTDSCQGDSGGPLVCFEKDKYILQGVTSWGLGCARPNKPGVYVRVSRFVTWIEGVMRNN
